Consider two molecules from PMC7219890 (2020).

By Kd is commonly meant the constant that tells how readily two partners part at equilibrium. A low value points to a tighter complex.

The target of the experiment is T1, Mical-1 (Homo sapiens, UniProt Q8TDZ2).
T1 chain: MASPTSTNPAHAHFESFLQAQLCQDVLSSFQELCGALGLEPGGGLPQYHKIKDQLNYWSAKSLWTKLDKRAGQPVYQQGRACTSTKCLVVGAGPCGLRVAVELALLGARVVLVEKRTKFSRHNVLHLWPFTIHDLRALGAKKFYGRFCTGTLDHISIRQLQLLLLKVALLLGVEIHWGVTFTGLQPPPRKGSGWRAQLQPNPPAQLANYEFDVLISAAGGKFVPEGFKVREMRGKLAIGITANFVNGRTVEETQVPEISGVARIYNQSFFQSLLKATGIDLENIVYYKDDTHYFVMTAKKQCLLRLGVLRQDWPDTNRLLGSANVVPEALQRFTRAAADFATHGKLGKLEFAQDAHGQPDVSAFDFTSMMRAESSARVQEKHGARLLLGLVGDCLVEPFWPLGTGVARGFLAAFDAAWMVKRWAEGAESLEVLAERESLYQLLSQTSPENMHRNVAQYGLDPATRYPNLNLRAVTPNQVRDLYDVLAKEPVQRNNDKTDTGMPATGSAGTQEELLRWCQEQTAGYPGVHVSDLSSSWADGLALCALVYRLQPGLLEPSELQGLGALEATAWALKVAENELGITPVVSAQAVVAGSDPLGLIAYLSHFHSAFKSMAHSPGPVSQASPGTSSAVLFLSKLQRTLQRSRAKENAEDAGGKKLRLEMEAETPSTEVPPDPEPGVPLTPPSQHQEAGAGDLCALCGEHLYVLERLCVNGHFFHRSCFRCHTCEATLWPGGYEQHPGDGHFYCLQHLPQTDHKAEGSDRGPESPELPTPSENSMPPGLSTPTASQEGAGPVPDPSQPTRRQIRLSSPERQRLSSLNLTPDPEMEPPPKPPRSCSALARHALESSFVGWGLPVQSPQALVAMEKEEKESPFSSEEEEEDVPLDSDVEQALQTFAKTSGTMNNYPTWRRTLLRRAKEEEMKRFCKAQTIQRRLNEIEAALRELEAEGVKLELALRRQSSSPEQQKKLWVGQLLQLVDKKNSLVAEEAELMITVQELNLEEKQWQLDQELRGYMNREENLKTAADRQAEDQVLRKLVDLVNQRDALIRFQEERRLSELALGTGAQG
The experiment in a line: ITC. (In general: In ITC the heat of successive injections is recorded.)

B1: Rab8A 6-176 (protein)
chain: DYLFKLLLIGDSGVGKTCVLFRFSEDAFNSTFISTIGIDFKIRTIELDGKRIKLQIWDTAGQERFRTITTAYYRGAMGIMLVYDITNEKSFDNIRNWIRNIEEHASADVEKMILGNKCDVNDKRQVSKERGEKLALDYGIKFMETSAKANINVENAFFTLARDIKAKMDKK
modifications: GppNHp-bound, C-terminal His6 tag on Rab8A
With B1, binding was put at a Kd of 923 nM.

B2: Rab8A 6-176 (protein)
chain: DYLFKLLLIGDSGVGKTCVLFRFSEDAFNSTFISTIGIDFKIRTIELDGKRIKLQIWDTAGQERFRTITTAYYRGAMGIMLVYDITNEKSFDNIRNWIRNIEEHASADVEKMILGNKCDVNDKRQVSKERGEKLALDYGIKFMETSAKANINVENAFFTLARDIKAKMDKK
modifications: phosphoSer111 Rab8A, GppNHp-bound, C-terminal His6 tag on Rab8A
Turning to B2, the Kd came out at 913 nM.
